Source: patent CN111647076A (UNIV NANJING MEDICAL, dated 2020)

B1: 4A12-hFc重组蛋白 (Fc fusion)
chain: EVQLLESGGGLVQPGGSLRLSCAASDFAFSSYEMSWVRQAPGKGLEWIGEIHHSGSTYYNPSLKSLVTISRDNSKNTLYLQMNSLRAEDTAVYYCVKDFGHLGQMASWGQGTLVTVSS
B2: 4D5-hFc重组蛋白 (Fc fusion)
chain: EVQLLESGGGLVQPGGSLRLSCAASSFDFSSYEMSWVRQAPGKALEWIGEIHHSGSTYYNPSLKSRVTISRDNSKNTLYLQMNSLRAEDTAMYYCVKDLGFADHWGQGTLVTVSS
B3: 4A10-hFc重组蛋白 (Fc fusion)
chain: EVQLLESGGGLVQPGGSLRLSCAASSFDFSDYEMSWVRQAPGKGLEWIGEIHHSGSTYYNPSLKSRVTISRDNSKNTLYLQMNSLRAEDTATYYCVKDFVVGETAEFSYWGQGTLVTVSS
B4: 4C5-hFc重组蛋白 (Fc fusion)
chain: EVQLLESGGGLVQPGGSLRLSCAASDFYFADYEMSWVRQAPGKGLEWIGSIYHSGSTYYNPSLKSRVTISRDNSKNTLYLQMNSLRAEDTAMYYCAREWHSGYDYWGQGTLVTVSS
B5: 4A12噬菌体 (single-domain antibody 4A12 displayed on phage) (VHH)
VHH: EVQLLESGGGLVQPGGSLRLSCAASDFAFSSYEMSWVRQAPGKGLEWIGEIHHSGSTYYNPSLKSLVTISRDNSKNTLYLQMNSLRAEDTAVYYCVKDFGHLGQMASWGQGTLVTVSS
notes: also called 抗体4A12
B6: 4D5噬菌体 (single-domain antibody 4D5 displayed on phage) (VHH)
VHH: EVQLLESGGGLVQPGGSLRLSCAASSFDFSSYEMSWVRQAPGKALEWIGEIHHSGSTYYNPSLKSRVTISRDNSKNTLYLQMNSLRAEDTAMYYCVKDLGFADHWGQGTLVTVSS
notes: also called 抗体4D5
B7: 4A10噬菌体 (single-domain antibody 4A10 displayed on phage) (VHH)
VHH: EVQLLESGGGLVQPGGSLRLSCAASSFDFSDYEMSWVRQAPGKGLEWIGEIHHSGSTYYNPSLKSRVTISRDNSKNTLYLQMNSLRAEDTATYYCVKDFVVGETAEFSYWGQGTLVTVSS
notes: also called 抗体4A10
B8: 4C5噬菌体 (single-domain antibody 4C5 displayed on phage) (VHH)
VHH: EVQLLESGGGLVQPGGSLRLSCAASDFYFADYEMSWVRQAPGKGLEWIGSIYHSGSTYYNPSLKSRVTISRDNSKNTLYLQMNSLRAEDTAMYYCAREWHSGYDYWGQGTLVTVSS
notes: also called 抗体4C5

Each binder was assayed against SARS-Cov-2 spike on lentiviral pseudovirus (SARS-Cov-2, UniProt P0DTC2 14-1273) (assay: cell-based or functional assay).

Question: With B1 as the binder, how does the “IC50 of pseudovirus infection of ACE2-CHO cells (Luciferase活性)” value (“IC50” for short) read?
Answer: The value was 0.19 µg/mL.

Question: B2 was tested. Which “IC50” value did it give?
Answer: The value was 1.13 µg/mL.

Question: B3 was tested. Which “IC50” value did it give?
Answer: The value was 0.66 µg/mL.

Question: B4 was tested. Which “IC50” value did it give?
Answer: The value was 2.32 µg/mL.

The binders below were run against T1, SARS-Cov-1-RBD-hFc (SARS-Cov-1, UniProt P59594 306-527) (assay: phage ELISA, antigen coated at 5 μg/ml, anti-M13-HRP).
T1 construct: domain: RBD

Question: Does B5 bind?
Answer: Result: no binding

Question: Does B6 bind?
Answer: Result: no binding

Question: Does B7 bind?
Answer: Result: no binding

Question: Does B8 bind?
Answer: Result: no binding
